Reference: patent US20190015518A1, “DRUG DELIVERY COMPOSITIONS AND METHODS” (priority 2016, published 2019)

Experiments:
[1] = Rehydration time of lyophilized HA-Lys-Pt; type: physicochemical
Description: 33HA-Lys-Pt (MW of HA: 33 kDa) from batch 33_01015 was used to evaluate the impact of trehalose as an excipient and lyoprotectant. […] The solution was freeze-dried using the following program. Samples were frozen in a −80° C. freezer for 4 hours. The vials were transferred to a freeze dryer and kept at −40° C. for 1.5 hours. The condenser point was set at −70° C. The vacuum setpoint was 100 mTorr. The parameters for primary drying were 30 hours at −35° C. and 10 mTorr. The parameters for secondary drying were 5 hours at 2° C. and 10 mTorr, followed by another 5 hours at 8° C. and 10 mTorr. […] During rehydration, 500-μL of water was added to the vial and the sample was gently shaken. The small molecular weight platinum species such as mono-aquated and di-aquated platinum were separated from the reconstituted 33HA-Lys-Pt using a Centricon centrifugal filter unit (10,000 MWCO, 4000 rpm for 10 min at 4° C.) and analyzed by an HPLC assay. The mobile phase was sodium phosphate solution (10-mM, pH 3.0) at a flow rate of 0.25 mL/min on an Alltech® 250 mm×4.6 mm M/M RP8/cation column thermostated at 25° C.
The solution was freeze-dried using the following program. Samples were frozen in a −80° C. freezer for 4 hours. The vials were transferred to a freeze dryer and kept at −40° C. for 1.5 hours. The condenser point was set at −70° C. The vacuum setpoint was 100 mTorr. The parameters for primary drying were 30 hours at −35° C. and 10 mTorr. The parameters for secondary drying were 5 hours at 2° C. and 10 mTorr, followed by another 5 hours at 8° C. and 10 mTorr. […] During rehydration, 500-μL of water was added to the vial and the sample was gently shaken.
One milliliter of samples were used for all tests. The trehalose percent weights varied from 8-20% wt. The pHs included 4.5, 5, 6, and 7. The solution was freeze-dried using the aforementioned freeze-drying program. […] During rehydration, 1-mL of water was added to the vial and the sample was gently shaken. Diaquated platinum species were separated using the aforementioned Centricon units and analyzed using the aforementioned HPLC method.
Other sample freezing methods were also tested. For examples, samples were gradually frozen in ethanol bath at −80° C. and lyophilized. In addition, samples were flash frozen using liquid nitrogen and lyophilized.
Rehydration using one half of the original sample volume was tested.
Besides trehalose, PEG 200 (2 and 5% wt) was tested as a second excipient to aid the rehydrate process.

Plasma Pt quantitation = conditions: s.c. 10 mg/kg, between 24 and 72 hours
Description: (§1) Whole blood was centrifuged (1500×g, 5 min., 4° C., no brake). Top layer (plasma) and middle layer (white blood cells) were transferred to new tubes. Plasma was frozen (−20° C.) until analysis. […] The white blood cell pellet was washed twice with cold PBS and re-suspended in 9 mL of white blood cell buffer (10-mM Tris, pH 7.4, 2.3% NaCl, 2-mM EDTA), and 900 μL of 1.1-M NH4HCO3, 900 μL of 10% SDS, and 75 μL of 2% Proteinase K were added and incubated at 42° C. overnight. Then, 3.3 mL of 5-M NaCl was added, samples shaken vigorously, and centrifuged twice (3200×g, 5 min, 4° C.), each time discarding the pellet. DNA was pelleted with 20 mL of ice-cold 100% ethanol and centrifuged (3200×g, 5 min, 4° C.); the DNA pellet was washed twice with 75% ethanol, re-suspended in water, and quantitated. DNA was digested in 1% HNO3 (800 μL total volume) overnight at 70° C. DNA samples were diluted 1:10 in 1% HNO3 and plasma samples were diluted 1:10,000 in 1% HNO3. Diluted samples were analyzed for Pt content using ICP-MS with a calibration curve from 1-1000 ppt.

[2] = Microscopic urinalysis of a healthy dog given 1.5 mg/kg on day 1 and 2.0 mg/kg on day 70, sub-mucosa; type: in vivo
Description: Before each dose, the dog was examined by clinical chemistry, hematology, and urinalysis. Additional examinations of clinical chemistry and hematology were performed on days 7, 14, and 42 after the first dose. Additional tests of urinalysis were performed on days 7 and 14 after the first dose. The potential drug-induced toxicities were monitored for 56 days after the second dose. Specifically, clinical chemistry and urinalysis were performed on days 7, 14, 21, and 56, and hematology was performed on days 7, 14, and 56 after the second dose to evaluate the tolerability and toxicity of the formulation.
Microscopic urinalyses were performed at pre- and post-dose for both injections. The injections were given via the sub-mucosa in the mouth.

white blood cell DNA = experiment: Pt-DNA adduct quantitation in white blood cell DNA; type: in vivo, rat; conditions: cisplatin i.v. 10 mg/kg; HA-Lys-Pt s.c. 10 mg/kg cisplatin basis; 10 mg/kg
Description: as §1

[3] = system: 4T1.2-neu (murine breast cancer cells); experiment: Anti-proliferative activity (Resazurin Blue, 72 hours); type: cell-based; conditions: mean ± S.E.M., cisplatin basis
Description: MDA-1986 (human head and neck squamous cell carcinoma), 4T1.2-neu (murine breast cancer cells), and A2058 (human melanoma) cells were maintained in Dulbecco's Modified Eagle Medium (DMEM, Corning, Manassas, Va.) with 4.5 g/L glucose, 4.5 g/L L-glutamine, and 10% fetal bovine serum in a humidified incubator at 37° C. and 5% CO2. Cells were seeded into 96-well plates (3,000 cells/well in 90 μL media) and allowed to attach overnight. […] Resazurin Blue (Acros Organics, Geel, Belgium) in PBS was added to each well (5-μM final concentration; 10-μL addition) and incubated at 37° C. for 4 hours. Fluorescence (λex 550 nm, λem 605 nm) was quantified with a SpectraMax Gemini XS plate-reader (Molecular Devices, Sunnyvale, Calif.). The relative growth of cells incubated with each compound concentration was normalized to vehicle-treated controls (100% proliferation). Data from at least three separate experiments performed in duplicate was analyzed using non-linear regression (GraphPad Prism 5.0) to generate IC50 values.

With “HA-cis-[Pt(NH3)2(N^α-Acetyl-L-Lysine)] [75HA-Lys-Pt]” the “Rehydration Time” value ([1]; 1.46 mg/mL, pH 6, trehalose 0% wt) was >48 h, the “Rehydration Time” value ([1]; 1.46 mg/mL, pH 6, trehalose 5% wt) was “Ca. 12 hour” and the “Rehydration Time” value ([1]; 1.46 mg/mL, pH 6, trehalose 10% wt) was 7 h. The “Rehydration Time” value ([1]; 1.46 mg/mL, pH 6, trehalose 15% wt) was 6 h, the “Rehydration Time” value ([1]; 1.46 mg/mL, pH 7, trehalose 5% wt) was “ca. 2.5 hour” and the “Rehydration Time” value ([1]; 1.46 mg/mL, pH 7, trehalose 10% wt) was 1 h. The “Rehydration Time” value ([1]; 1.46 mg/mL, pH 7, trehalose 15% wt) was 1 h, the “Rehydration Time” value ([1]; 1.99 mg/mL, pH 4.5, trehalose 15% wt) was 26 h and the “Rehydration Time” value ([1]; 1.99 mg/mL, pH 4.5, trehalose 20% wt) was 26 h. The “Rehydration Time” value ([1]; 1.99 mg/mL, pH 5, trehalose 15% wt) was 26 h, the “Rehydration Time” value ([1]; 1.99 mg/mL, pH 5, trehalose 20% wt) was 26 h and the “Rehydration Time” value ([1]; 1.99 mg/mL, pH adjusted to 5 at rehydration, trehalose 10% wt) was 6 to 20 h. For the same substance, the “Rehydration Time” value ([1]; 1.99 mg/mL, pH adjusted to 6 at rehydration, trehalose 10% wt) was 6 to 20 h, the “Rehydration Time” value ([1]; 1.99 mg/mL, pH adjusted to 7 at rehydration, trehalose 10% wt) was 6 to 20 h and the “Rehydration Time” value ([1]; 3 mg/mL, pH 5, trehalose 15% wt) was >48 h. For the same substance, the “Rehydration Time” value ([1]; batch 75_0706, 1.06 mg/mL, pH 5, trehalose 7.5% wt, rehydration using half the original volume) was 7 h, the “Rehydration Time” value ([1]; batch 75_0706, 1.06 mg/mL, pH 5, trehalose 10% wt, rehydration using half the original volume) was 7 h and the “Rehydration Time” value ([1]; batch 75_0706, 2.13 mg/mL, pH 5, trehalose 15% wt, Ethanol bath) was >48 h. For the same substance, the “Rehydration Time” value ([1]; batch 75_0706, 2.13 mg/mL, pH 5, trehalose 20% wt, Ethanol bath) was >48 h, the “Rehydration Time” value ([1]; batch 75_0706, 2.13 mg/mL, pH 5, trehalose 20% wt, PEG200 2% wt) was 48 h and the “Rehydration Time” value ([1]; batch 75_0706, 2.13 mg/mL, pH 5, trehalose 20% wt, PEG200 5% wt) was 48 h. For the same substance, the “Rehydration Time” value ([1]; batch 75_0706, 3.00 mg/mL, pH 5, trehalose 15% wt) was >48 h, the “plasma Pt plateau concentration” value (Plasma Pt quantitation) was 4-5 μg Pt/mL plasma and the Cast ([2]; 2 mg/kg, 7 days after) was “Rare triple”. The “Trpl Ph Crystal” value ([2]; 2 mg/kg, 7 days after) was “Rare”, the “urine Red Blood Cells” value ([2]; 2 mg/kg, 14 days after) was 16-30 and the Bac-U ([2]; 2 mg/kg, 21 days after) was “Few”. The “Trpl Ph Crystal” value ([2]; 2 mg/kg, 21 days after) was “Rare triple”, the “urine Red Blood Cells” value ([2]; 2 mg/kg, 21 days after) was 1-5 and the Bac-U ([2]; 2 mg/kg, 56 days after) was “Rare”. The “Trpl Ph Crystal” value ([2]; 2 mg/kg, 56 days after) was “Few”, the “urine Red Blood Cells” value ([2]; 2 mg/kg, 56 days after) was “TNTC” and the Bac-U ([2]; […], 7 days after) was “Moderate”. The “Trpl Ph Crystal” value ([2]; […], 7 days after) was “Few”, the Bac-U ([2]; […], 14 days) was “Few” and the “Pt-DNA adduct AUC” value (white blood cell DNA) was 4730 pg Pt×h/μg DNA. It also gave an IC50 [3] of 80.1 ± 12.7 µM.
